# US20040191240
# B1: Rho kinase fragment (aa 1-543, Upstate Biotechnology) (protein)
# chain: MSRPPPTGKMPGAPETAPGDGAGASRQRKLEALIRDPRSPINVESLLDGLNSLVLDLDFPALRKNKNIDNFLNRYEKIVKKIKGLQMKAEDYDVVKVIGRGAFGEVQLVRHKASQKVYAMKLLSKFEMIKRSDSAFFWEERDIMAFANSPWVVQLFYAFQDDRYLYMVMEYMPGGDLVNLMSNYDVPEKWAKFYTAEVVLALDAIHSMGLIHRDVKPDNMLLDKHGHLKLADFGTCMKMDETGMVHCDTAVGTPDYISPEVLKSQGGDGFYGRECDWWSVGVFLYEMLVGDTPFYADSLVGTYSKIMDHKNSLCFPEDAEISKHAKNLICAFLTDREVRLGRNGVEEIRQHPFFKNDQWHWDNIRETAAPVVPELSSDIDSSNFDDIEDDKGDVETFPIPKAFVGNQLPFIGFTYYRENLLLSDSPSCRENDSIQSRKNEESQEIQKKLYTLEEHLSNEMQAKEELEQKCKSVNTRLEKTAKELEEEITLRKSVESALRQLEREKALLQHKNAEYQRKADHEADKKRNLENDVNSLKDQLEDL
# Target: recombinant full-length p21 (Santa Cruz)
# Sequence (chain, as listed by the source): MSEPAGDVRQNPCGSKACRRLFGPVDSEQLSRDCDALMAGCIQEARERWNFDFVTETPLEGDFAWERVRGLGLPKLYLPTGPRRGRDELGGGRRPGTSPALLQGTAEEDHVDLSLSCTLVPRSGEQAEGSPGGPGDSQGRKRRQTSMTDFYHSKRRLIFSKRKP
protein,measurement,value
B1,"Rho-kinase activity toward S6 kinase substrate peptide ([gamma-32P]ATP, scintillation counting), in vitro",the estimated ICso value was 1.43 nM
